Patent US20200131489, “ENGINEERED MEGANUCLEASES SPECIFIC FOR RECOGNITION SEQUENCES IN THE PCSK9 GENE” (Precision BioSciences, Inc., published 2020)

What was measured:
Experiment in all cases: cell_activity; HEK293 mRNA electroporation, 48 h, mock 0.40%
Details in all cases: tags: N-terminal SV40 NLS
PCS 7-8L.268 = molecular target: T1, PCS 7-8L.268 (synthetic (I-CreI derived, …))
T1 chain: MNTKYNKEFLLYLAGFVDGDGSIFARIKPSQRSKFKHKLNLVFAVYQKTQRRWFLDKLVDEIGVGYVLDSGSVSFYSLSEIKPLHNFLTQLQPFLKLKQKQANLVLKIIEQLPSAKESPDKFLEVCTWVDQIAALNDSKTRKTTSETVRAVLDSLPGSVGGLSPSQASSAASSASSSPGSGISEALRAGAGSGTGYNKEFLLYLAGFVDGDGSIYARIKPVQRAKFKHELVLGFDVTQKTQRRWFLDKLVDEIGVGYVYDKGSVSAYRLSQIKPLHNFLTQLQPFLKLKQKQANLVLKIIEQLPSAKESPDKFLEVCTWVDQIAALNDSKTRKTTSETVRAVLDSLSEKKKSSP
Method: (§1) In order to directly observe insertions or deletions at the intended PCS 7-8 meganuclease target site, a deep sequencing protocol was used. 2e⁶ HEK 293 cells were electroporated with 5 ug of PCS 7-8 meganuclease mRNA using a BioRad Gene Pulser Xcell according to the manufacturer's instructions. A mock electroporation was also performed with no mRNA. At 48 hours post-transfection, genomic DNA (gDNA) was harvested from cells. The PCS 7-8 locus was amplified by PCR using primers that flank the PCS 7-8 recognition sequence. This amplicon was run on an agarose gel for visual confirmation, extracted using a Macherey-Nagel Nucleospin Gel and PCR Clean-up kit, and sequencing libraries were prepared using the NEBNext Ultra II DNA Library Kit for Illumina from New England Biolabs. The paired-end sequencing libraries were read on an Illumina Miseq DNA sequencer. Sequencing data was analyzed using custom scripts. Reads with start or end points not within 25 bp of the full-length amplicon were removed. The percent of reads with indels was calculated by dividing the number of full-length reads having an indel that incorporated at least one of the middle 8 bp of the recognition sequence by the total number of full-length reads.

PCS 7-8L.209 = molecular target: T2, PCS 7-8L.209 (synthetic (I-CreI derived, …))
T2 chain: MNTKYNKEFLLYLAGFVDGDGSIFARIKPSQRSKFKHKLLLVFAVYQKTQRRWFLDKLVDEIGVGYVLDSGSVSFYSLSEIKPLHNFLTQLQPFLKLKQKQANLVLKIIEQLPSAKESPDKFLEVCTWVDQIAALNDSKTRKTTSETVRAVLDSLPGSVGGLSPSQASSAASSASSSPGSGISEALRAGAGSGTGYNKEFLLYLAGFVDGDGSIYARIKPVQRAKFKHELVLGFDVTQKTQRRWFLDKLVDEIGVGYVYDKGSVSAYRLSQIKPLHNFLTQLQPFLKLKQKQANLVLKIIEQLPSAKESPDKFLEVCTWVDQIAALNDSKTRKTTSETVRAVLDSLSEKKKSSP
Method: as §1

PCS 7-8L.261 = molecular target: T3, PCS 7-8L.261 (synthetic (I-CreI derived, …))
T3 chain: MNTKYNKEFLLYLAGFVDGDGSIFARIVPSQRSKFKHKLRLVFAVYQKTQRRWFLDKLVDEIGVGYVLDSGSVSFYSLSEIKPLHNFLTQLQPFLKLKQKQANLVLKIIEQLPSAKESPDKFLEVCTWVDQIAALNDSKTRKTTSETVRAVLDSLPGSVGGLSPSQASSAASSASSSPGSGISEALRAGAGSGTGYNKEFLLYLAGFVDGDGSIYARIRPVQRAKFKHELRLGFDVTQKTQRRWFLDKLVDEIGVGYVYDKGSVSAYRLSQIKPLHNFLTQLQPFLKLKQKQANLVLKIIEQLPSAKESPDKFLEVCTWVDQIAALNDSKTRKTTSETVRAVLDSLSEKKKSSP
Method: as §1

PCS 7-8L.204 = molecular target: T4, PCS 7-8L.204 (synthetic (I-CreI derived, …))
T4 chain: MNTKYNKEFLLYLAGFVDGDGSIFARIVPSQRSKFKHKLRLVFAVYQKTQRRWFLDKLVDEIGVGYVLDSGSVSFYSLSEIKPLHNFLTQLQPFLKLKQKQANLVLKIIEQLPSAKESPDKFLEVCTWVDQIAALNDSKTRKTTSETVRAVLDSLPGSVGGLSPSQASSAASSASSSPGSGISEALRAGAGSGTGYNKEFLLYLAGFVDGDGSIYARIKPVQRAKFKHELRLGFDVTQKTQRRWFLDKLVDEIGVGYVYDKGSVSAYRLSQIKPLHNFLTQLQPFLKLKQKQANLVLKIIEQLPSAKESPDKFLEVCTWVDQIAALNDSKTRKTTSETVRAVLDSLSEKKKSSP
Method: as §1

PCS 7-8L.262 = molecular target: T5, PCS 7-8L.262 (synthetic (I-CreI derived, …))
T5 chain: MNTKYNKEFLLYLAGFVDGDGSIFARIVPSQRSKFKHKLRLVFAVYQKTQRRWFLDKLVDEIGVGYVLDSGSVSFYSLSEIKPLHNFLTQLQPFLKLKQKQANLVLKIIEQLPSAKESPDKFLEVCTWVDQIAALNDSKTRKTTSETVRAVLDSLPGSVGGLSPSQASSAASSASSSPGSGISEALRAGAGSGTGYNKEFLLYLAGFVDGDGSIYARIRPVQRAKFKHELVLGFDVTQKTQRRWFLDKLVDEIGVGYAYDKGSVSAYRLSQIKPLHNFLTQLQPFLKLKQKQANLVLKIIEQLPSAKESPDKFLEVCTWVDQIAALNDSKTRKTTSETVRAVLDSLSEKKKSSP
Method: as §1

B1: PCS 7-8 recognition sequence (dsDNA)
DNA 1: TGGACCTCTTTGCCCCAGGGGA
DNA 2: TCCCCTGGGGCAAAGAGGTCCA
In the case of B1, the activity (PCS 7-8L.268) is reported as 52.5 % indels, the activity (PCS 7-8L.209) is reported as 53.2 % indels and the activity (PCS 7-8L.261) is reported as 55.4 % indels. The activity (PCS 7-8L.204) was 58.4 % indels and the activity (PCS 7-8L.262) was 53.5 % indels.
